Assay results published in PMC5638241, “Chlorophyte aspartyl aminopeptidases: Ancient origins, expanded families, new locations, and secondary functions” (PLoS ONE, 2017).

B1: Arabidopsis thaliana aspartyl aminopeptidase 1 with N-terminal His6 (His6-DAP1) (enzyme, UniProt Q9LST0 1-477, looked up)
chain: MDKSSLVSDFLSFLNASPTAFHAVDESKRRLLKAGYEQISERDDWKLEAGKKYFFTRNYSTIVAFAIGHKYVAGNGFHIIGAHTDSPCLKLKPVSKITKGGCLEVGVQTYGGGLWYTWFDRDLTVAGRVILKEEKAGSVSYSHRLVRIEDPIMRIPTLAIHLDRNVNTEGFKPNTQTHLVPVLATAIKAELNKTPAESGEHDEGKKCAETSSKSKHHPLLMEIIANALGCKPEEICDFELQACDTQPSILAGAAKEFIFSGRLDNLCMSFCSLKALIDATSSGSDLEDESGIRMVALFDHEEVGSNSAQGAGSPVMIDAMSHITSCFSSDTKVLKKAIQKSLLVSADMAHALHPNFMDKHEENHQPKMHGGLVIKHNANQRYATNAVTSFVFREIAEKHNLPVQDFVVRNDMGCGSTIGPILASSVGIRTVDVGAPQLSMHSIREMCAADDVKHSYEHFKAFFQEFTHLDAKLTIDV
notes: AtDAP1 (At5g60160), M18 aspartyl aminopeptidase of Arabidopsis thaliana ecotype Columbia; entire coding region of the DAP1 cDNA (nucleotides 86 to 1519 of NM_125409) cloned into pET28; Monomer 54.6 kDa as printed; also called AtDAP1; At5g60160; source: E. coli BL21[DE3]pLys, purified (Ni-NTA, 100-kDa MWCO Centricon); not shown: His6, N-terminal, kept; copies: 12
B2: His6-DAP2 (mature AtDAP2) (Arabidopsis thaliana) (protein)
chain: ASIVGDLLDYLNESWTQFHATAEAKRQLLAAGFDLLSENEDWNLKPGGRYFFTRNMSCLVAFAVGEKYVPGNGFHAIAAHTDSPCLKLKPKSASSKSGYLMVNVQTYGGGLWHTWFDRDLSVAGRAIVRASDGSFVHRLVKVKRPLLRVPTLAIHLDRTVNSDGFKPNLETQLVPLLATKSDESSAESKDKNVSSKDAHHPLLMQILSDDLDCKVEDIVSLELNICDTQPSCLGGANNEFIFSGRLDNLASSFCALRALIDSCESSENLSTEHDIRMIALFDNEEVGSDSCQGAGAPTMFQAMRRIVSSLGNKQVTECTFDRAIRKSFLVSADMAHGVHPNFADKHEENHRPQLHKGLVIKHNANQRYATSGITSFLFKEVAKLHDLPIQEFVVRNDMGCGSTIGPILASGVGIRTVDCGIAQLSMHSVREICGTDDIDIAYRHFKAFYRSFSSVDKKLVVDD
notes: mature form without 63-residue transit peptide, N-terminal His6 fusion (pET28), E. coli BL21(DE3)pLysS, Ni-NTA; no tag removal mentioned

Assays:
[1] = target: Arabidopsis thaliana aspartyl aminopeptidase 2, mature (without transit peptide), with N-terminal His6 (His6-DAP2) (Arabidopsis thaliana); assay: native gel or EMSA; series of native polyacrylamide gels (4, 4.5, 5 and 6% acrylamide) of Ni-NTA-purified His6-DAPs; masses from relative mobilities and retardation coefficients (Hedrick and Smith; Bryan), BSA and urease as mass standards
purified protein = substrate: N[C@@H](CC(=O)O)C(=O)Nc1ccc([N+](=O)[O-])cc1; assay: purified protein; format: biochemical, Arabidopsis thaliana; conditions: 50 mM Tris-HCl pH 8.0, enzyme pre-activated with 0.5 mM MnCl2
[2] = target: the molecule itself; assay: native gel or EMSA; series of native polyacrylamide gels (4, 4.5, 5 and 6% acrylamide) of Ni-NTA-purified His6-DAPs; masses from relative mobilities and retardation coefficients (Hedrick and Smith; Bryan), BSA and urease as mass standards

Molecule	stoichiometry N [1]	Km (purified protein) [µM]	stoichiometry N [2]	kcat/Km (purified protein) [M⁻¹ s⁻¹]
Arabidopsis thaliana aspartyl aminopeptidase 2, mature (without transit peptide), with N-terminal His6 (His6-DAP2) (enzyme)	12			
B1		1250	12	
B2		210		3.47e+07
